B1: Hsp90 co-chaperone Cdc37 (Schizosaccharomyces pombe (strain ATCC 38366 / 972)), O94740 (parent)
chain: MAIDYSKWDKLELSDDSDIEVHPNVDKKSFIRWRQRDIHEKRAVRKQKMEDIKGAMAMNRRLLSRISEMETVLEKESPSDPYVLLGSFLEAKKSEDMDSAIPGGMSYHHMLMSLLKVIKDAEDTTEEKSMDDSDKCLRRLKSHKERLLKLLEDAQKEYDTLEAESKNYITSEDLHLGFDSTYVQKKEPEKPKKTKTKKETIQVIESLNNPTPPTDFPGAKEQASTGNAPKNPVNENESEDEEGLSLSEDGKKFANIDFGDYSSSEEFLKEHLNILADEEESDAILLEAFNAELEGKPSLAKQYVHQALLISYCRQLGPNGLSIFFQKIKDPNHQSQRLFLEDVHNTYVRIHERSAAISKEQAESGEGVEQIQLCAVDPNTKLSITIPEAGSTDPETQKARAAFESFPPNLQKALMTNDLDKINVVLGKMAVENAEEVVEKLSSTGMLSIEEGIIDTTKGETIPQLS

Variants of: B1
Conditions: with cdk1_schpo cdc2, P04551
Chain of cdk1_schpo cdc2, P04551 (P04551 whole entry): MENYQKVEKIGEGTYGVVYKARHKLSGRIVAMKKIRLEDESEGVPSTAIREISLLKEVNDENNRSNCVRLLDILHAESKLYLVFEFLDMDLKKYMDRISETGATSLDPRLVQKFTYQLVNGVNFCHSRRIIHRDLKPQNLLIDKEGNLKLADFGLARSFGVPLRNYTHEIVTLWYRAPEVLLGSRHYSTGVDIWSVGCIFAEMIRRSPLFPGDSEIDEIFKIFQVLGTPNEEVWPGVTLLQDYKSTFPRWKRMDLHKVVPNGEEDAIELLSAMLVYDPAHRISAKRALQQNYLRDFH

Row | Variant | effect of a mutation on the interaction
1 | MAIDYSKWDKLELSDDSDIEVHPNVDKKSFIRWRQRDIHEKRAVRKQKMEDIKGAMAMNRRLLSRISEMETVLEKESPSDPYVLLGSFLEAKKSEDMDSAIPGGMSYHHMLMSLLKVIKDAEDTTEEKSMDDSDKCLRRLKSHKERLLKLLEDAQKEYDTLEAESKNYITSEDLHLGFDSTYVQKKEPEKPKKTKTKKETIQVIESLNNPTPPTDFPGAKEQASTGNAPKNPVNENESEDEEGLSLSEDGKKFANIDFGDYSSSEEFLKEHLNILADEEESDAILLDAFNAELEGKPSLAKQYVHQALLISYCRQLGPNGLSIFFQKIKDPNHQSQRLFLEDVHNTYVRIHERSAAISKEQAESGEGVEQIQLCAVDPNTKLSITIPEAGSTDPETQKARAAFESFPPNLQKALMTNDLDKINVVLGKMAVENAEEVVEKLSSTGMLSIEEGIIDTTKGETIPQLS [E287D] | decreasing interaction
2 | MAIDYSKWDKLELSDDSDIEVHPNVDKKSFIRWRQRDIHEKRAVRKQKMEDIKGAMAMNRRLLSRISEMETVLEKESPSDPYVLLGSFLEAKKSEDMDSAIPGGMSYHHMLMSLLKVIKDAEDTTEEKSMDDSDKCLRRLKSHKERLLKLLEDAQKEYDTLEAESKNYITSEDLHLGFDSTYVQKKEPEKPKKTKTKKETIQVIESLNNPTPPTDFPGAKEQASTGNAPKNPVNENESEDEEGLSLSEDGKKFANIDFGDYSSSEEFLKEHLNILADEEESDAIPLEAFNAELEGKPSLAKQYVHQALLISYCRQLGPNGLSIFFQKIKDPNHQSQRLFLEDVHNTYVRIHERSAAISKEQAESGEGVEQIQLCAVDPNTKLSITIPEAGSTDPETQKARAAFESFPPNLQKALMTNDLDKINVVLGKMAVENAEEVVEKLSSTGMLSIEEGIIDTTKGETIPQLS [L285P] | decreasing interaction
